test: soluble on expression in E. coli; label from the status in PepcDB or PDB records

Sequence | soluble on expression in E. coli
MPDMANVESFDLDHTKVKAPYVRLAGVKTTPKGDQISKYDLRFLQPNQGAIDPAAIHTLEHLLAGYMRDHLEGVVDVSPMGCRTGMYMAVIGEPDEQGVMKAFEAALKDTAGHDQPIPGVSELECGNYRDHDLAAARQHARDVLDQGLKVQETILLERGSHHHHHH | soluble
MEKSLKNYKTLQQLFVRRLKAGVRPVDADEHTVVSPVDAVIEDMGTIRENCEMIVKGKPYSIAEMLGSVEAAQPYVNGFFFILYLSPSHYHRIHSPISGVIEKQWALGRKSYPVNRLGLKYGRRPLEKNYRLITEVTAGGKRLAIVKIGAMFVNSIELTHEGEQLVKGEEMAYFSFGSTVVLLFERGSFAPDPRIVAPMPIKVGERLGYWCEAHER | not soluble
MGHHHHHHSHMINQRMIHMKNTKLLLAIATSAALLTGCQNTHGIDTNMAISSGLNAYKAATLSDADAKAIANQGCAEMDSGNQVASKSSKYGKRLAKIAKALGNNINGTPVNYKVYMTSDVNAWAMANGCVRVYSGLMDMMNDNEIEGVLGHELGHVALGHSLAEMKASYAIVAARDAISATSGVASQLSRSQLGDIAEGAINAKYSRDKESEADDFSFDLLKKRGISTQGLVGSFETLASLDGGRTQSMFDSHPPSTERAQHIRDRIASGK | not soluble
MNAIILAAGFGSRLMPLTKDQPKCMVEYKNKKIIDYEIEALKSAGINEIAVVGGYLNDVLKNYLNKYDIEHFFINSKYDKTNMVHTFFCAKDFMLKCIEEKQDLIISYADIVYFQDCVQKLINAKEELAIVVDKSWCKLWSKRFANPLEDAETLKMTNGYIIELGKKANAYDEIEAQYIGLFKFSYQFLSEVIAFYEMLDRDILYDNKNFENMYMTSFLQALIEKYNNAKAVEIDGNWCEIDFMSDLEVQIEKLEHHHHHH | not soluble
GPGSMQIRRATMEDMYQMQHCNLRCLPENYNLRYYFYHILSWPQLLYVQEDYNRNIVGYVLAKMEDEEKPANIHGHITSIAVLRTHRRLGIASRVMRASMKEMEKEYDANYCSLHVRKTNDAALHLYQETLGFRCANVEKGYYVDEEDAFHMKKFFKGPNPGLYVAANRQLVRQQNSAAAAVTGMAALQRNGGTAPPPPPPSSSSAGGQRGENDTADLEKEQLKLVAELLEESNKESGKGRQQKQKQQQQSKGGNKRGKTKK | soluble
MSILQKLENSAAAAVKALYGTDPMEGQIQLQKTKREFKGHLTLVVFPFVKMSRKSPEATATEIGEWLLANESAVSAIEVVKGFLNLTIAPRVWLELLNEIRADINFGHKVATEDSPLVMVEYSSPNTNKPLHLGHVRNNLLGYSLSEIMKANGYRVVKTNIVNDRGIHICKSMLAWQKWGDGVTPEKAGKKGDHLIGDFYVLFDKHYKAELNSLMAEGKSKEEAEAASTLMAEAREMLRLWEAGDEKVVDLWRTMNQWVYDGFDATYKMMGVDFDKIYYESETYLVGKEEVLRGLEEGLFVKHSDGSVWADLTKDGLDEKLLLRADGTSVYMTQDIGTAKMRFNDYPINRMIYVVGNEQNYHFQVLSILLDRLGFEFGKGLVHFSYGMVELPEGKMKSREGTVVDADDLMDEMIRTAAEIAAEAGKAAEMDEEESREVARIVGLGSLKYFILKVDPRKNMTFNPKESIDFNGNTGSFVQYTYARIRSLMRRAEAAGYDIPSQLPTDLPLSEKEEALIQKVSEYAEVVSEAGHSYSPALIANYIYDLVKEYNQFYHDFSVLKEEDERIRAFRLALSEVVALTMRKGFALLGIEMPERM | not soluble
MGSDKIHHHHHHAVTTGNTPVTAEFAGGTLPDGNGVPNTVDPDPTKPNSNFDLLFIPREYDFGKLSISDDLTKPIPNKTDEGRAGNVESVGVGDIRGSKEGWHVTAQSTGMKLGEESLEGSITTGAMFLYPLIYNEETKTYDYQSADLADPVTKPETVDTTAFSIALGGDAVLLANATAGKGQGLWQFSFRPYLNITTPAYNIKAGAYTGNITWNLVAGPSI | not soluble
MGSDKIHHHHHHAQDKKKEFKMPTGYAGITHEMSEFYEPVPPVVTPGTDLKGGGFTAPSDAIVLFDGKDLSAWESVKGGAAEWDVHDGVFTVNKKKGDIQTKQKFNDFQMHIEWQVPTNITGESQSRGNSGIFLQGMYEVQVLDCYNNPTYVNGQTGSIYKQSIPLANAMRKPGEWNVYDIIYTAPTFKEDGSYRTHPTVTVIQNGVVLQNHTTILGTTEWIGFPQVKKHGAGPIILQSHGDPSEPISFRNIWIREL | not soluble

Source: the DeepSol protein solubility set
